Test results reported in publication PMC10374466.

B1: #1 (ssDNA)
DNA: CAGCACCGTCAACTGAATATCAGGACGGACCTGGGGAGGTCAGTTAGCCCTCTGAACTGTGATGCGATGGAGATGT
B2: #2 (ssDNA)
DNA: CAGCACCGTCAACTGAATCCGTCACTCGCTCGGGGGTCCGACATTTACCCTGTGAAATGTGATGCGATGGAGATGT
B3: IDO-APT (#4) (ssDNA)
DNA: CAGCACCGTCAACTGAATGCCAACGGCATATCCGGACAGGCGGGAACCTAGGGCCTTTGTGATGCGATGGAGATGT
B4: #3 (ssDNA)
DNA: CAGCACCGTCAACTGAATAGGAAGATACCCGGGGGTACCGTTACCGCTGTGAACGGAGGTGATGCGATGGAGATGT

Columns and labels:
[1] = target: T1, mouse IDO1 (Mus musculus, UniProt P28776 1-407); experiment: flow cytometry on protein-coated beads
[2] = target: T1, mouse IDO1; experiment: flow cytometry on protein-coated beads; remark: listed apart in the source

T1 sequence (P28776 whole entry): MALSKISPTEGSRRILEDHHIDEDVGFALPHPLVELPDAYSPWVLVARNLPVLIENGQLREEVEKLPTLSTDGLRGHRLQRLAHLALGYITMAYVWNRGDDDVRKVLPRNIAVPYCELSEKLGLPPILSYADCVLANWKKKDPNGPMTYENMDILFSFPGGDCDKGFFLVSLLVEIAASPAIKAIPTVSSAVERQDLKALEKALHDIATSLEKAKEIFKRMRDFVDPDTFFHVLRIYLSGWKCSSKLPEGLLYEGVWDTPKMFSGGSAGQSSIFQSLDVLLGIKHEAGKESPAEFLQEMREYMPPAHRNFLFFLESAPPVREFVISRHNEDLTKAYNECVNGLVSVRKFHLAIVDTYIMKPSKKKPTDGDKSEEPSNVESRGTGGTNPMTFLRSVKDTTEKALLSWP

Row | Binder | binding result [1] | Kd [2] [nM]
1 | B1 | binds | –
2 | B2 | binds | –
3 | B3 | – | 131 ± 9
4 | B4 | binds | –
